Measured values published in article PMC10540216, “Activity Guided Azide-methyllysine Photo-trapping for Substrate Profiling of Lysine Demethylases” (Journal of the American Chemical Society, 2023).

B1: CH60_HUMAN (protein, UniProt P10809 27-573, looked up)
60 kDa heat shock protein, …: AKDVKFGADARALMLQGVDLLADAVAVTMGPKGRTVIIEQSWGSPKVTKDGVTVAKSIDLKDKYKNIGAKLVQDVANNTNEEAGDGTTTATVLARSIAKEGFEKISKGANPVEIRRGVMLAVDAVIAELKKQSKPVTTPEEIAQVATISANGDKEIGNIISDAMKKVGRKGVITVKDGKTLNDELEIIEGMKFDRGYISPYFINTSKGQKCEFQDAYVLLSEKKISSIQSIVPALEIANAHRKPLVIIAEDVDGEALSTLVLNRLKVGLQVVAVKAPGFGDNRKNQLKDMAIATGGAVFGEEGLTLNLEDVQPHDLGKVGEVIVTKDDAMLLKGKGDKAQIEKRIQEIIEQLDVTTSEYEKEKLNERLAKLSDGVAVLKVGGTSDVEVNEKKDRVTDALNATRAAVEEGIVLGGGCALLRCIPALDSLTPANEDQKIGIEIIKRTLKIPAMTIAKNAGVEGSLIVEKIMQSSSEVGYDAMAGDFVNMVEKGIIDPTKVVRTALLDAAGVASLLTTAEVVVTEIPKEEKDPGMGAMGGMGGGMGGGMF
B2: SYYM_HUMAN (protein, UniProt Q9Y2Z4 17-477, looked up)
Tyrosine--tRNA ligase, …: TLNLSVLLPLGLRKAHSGAQGLLAAQKARGLFKDFFPETGTKIELPELFDRGTASFPQTIYCGFDPTADSLHVGHLLALLGLFHLQRAGHNVIALVGGATARLGDPSGRTKEREALETERVRANARALRLGLEALAANHQQLFTDGRSWGSFTVLDNSAWYQKQHLVDFLAAVGGHFRMGTLLSRQSVQLRLKSPEGMSLAEFFYQVLQAYDFYYLFQRYGCRVQLGGSDQLGNIMSGYEFINKLTGEDVFGITVPLITSTTGAKLGKSAGNAVWLNRDKTSPFELYQFFVRQPDDSVERYLKLFTFLPLPEIDHIMQLHVKEPERRGPQKRLAAEVTKLVHGREGLDSAKRCTQALYHSSIDALEVMSDQELKELFKEAPFSEFFLDPGTSVLDTCRKANAIPDGPRGYRMITEGGVSINHQQVTNPESVLIVGQHILKNGLSLLKIGKRNFYIIKWLQL
B3: IDHP_HUMAN (protein, UniProt P48735 40-452, looked up)
Isocitrate dehydrogenase …: ADKRIKVAKPVVEMDGDEMTRIIWQFIKEKLILPHVDIQLKYFDLGLPNRDQTDDQVTIDSALATQKYSVAVKCATITPDEARVEEFKLKKMWKSPNGTIRNILGGTVFREPIICKNIPRLVPGWTKPITIGRHAHGDQYKATDFVADRAGTFKMVFTPKDGSGVKEWEVYNFPAGGVGMGMYNTDESISGFAHSCFQYAIQKKWPLYMSTKNTILKAYDGRFKDIFQEIFDKHYKTDFDKNKIWYEHRLIDDMVAQVLKSSGGFVWACKNYDGDVQSDILAQGFGSLGLMTSVLVCPDGKTIEAEAAHGTVTRHYREHQKGRPTSTNPIASIFAWTRGLEHRGKLDGNQDLIRFAQMLEKVCVETVESGAMTKDLAGCIHGLSNVKLNEHFLNTTDFLDTIKSNLDRALGRQ
B4: MCCB_HUMAN (protein, UniProt Q9HCC0 23-563, looked up)
Methylcrotonoyl-CoA …: YHGDSVASLGTQPDLGSALYQENYKQMKALVNQLHERVEHIKLGGGEKARALHISRGKLLPRERIDNLIDPGSPFLELSQFAGYQLYDNEEVPGGGIITGIGRVSGVECMIIANDATVKGGAYYPVTVKKQLRAQEIAMQNRLPCIYLVDSGGAYLPRQADVFPDRDHFGRTFYNQAIMSSKNIAQIAVVMGSCTAGGAYVPAMADENIIVRKQGTIFLAGPPLVKAATGEEVSAEDLGGADLHCRKSGVSDHWALDDHHALHLTRKVVRNLNYQKKLDVTIEPSEEPLFPADELYGIVGANLKRSFDVREVIARIVDGSRFTEFKAFYGDTLVTGFARIFGYPVGIVGNNGVLFSESAKKGTHFVQLCCQRNIPLLFLQNITGFMVGREYEAEGIAKDGAKMVAAVACAQVPKITLIIGGSYGAGNYGMCGRAYSPRFLYIWPNARISVMGGEQAANVLATITKDQRAREGKQFSSADEAALKEPIIKKFEEEGNPYYSSARVWDDGIIDPADTRLVLGLSFSAALNAPIEKTDFGIFRM
B5: GLYM_HUMAN (protein, UniProt P34897 30-504, looked up)
Serine …: NAAQTQTGEANRGWTGQESLSDSDPEMWELLQREKDRQCRGLELIASENFCSRAALEALGSCLNNKYSEGYPGKRYYGGAEVVDEIELLCQRRALEAFDLDPAQWGVNVQPYSGSPANLAVYTALLQPHDRIMGLDLPDGGHLTHGYMSDVKRISATSIFFESMPYKLNPKTGLIDYNQLALTARLFRPRLIIAGTSAYARLIDYARMREVCDEVKAHLLADMAHISGLVAAKVIPSPFKHADIVTTTTHKTLRGARSGLIFYRKGVKAVDPKTGREIPYTFEDRINFAVFPSLQGGPHNHAIAAVAVALKQACTPMFREYSLQVLKNARAMADALLERGYSLVSGGTDNHLVLVDLRPKGLDGARAERVLELVSITANKNTCPGDRSAITPGGLRLGAPALTSRQFREDDFRRVVDFIDEGVNIGLEVKSKTAKLQDFKSFLLKDSETSQRLANLRQRVEQFARAFPMPGFDEH
B6: CBS_HUMAN (protein, UniProt P35520 1-551, looked up)
Cystathionine beta-synthase: MPSETPQAEVGPTGCPHRSGPHSAKGSLEKGSPEDKEAKEPLWIRPDAPSRCTWQLGRPASESPHHHTAPAKSPKILPDILKKIGDTPMVRINKIGKKFGLKCELLAKCEFFNAGGSVKDRISLRMIEDAERDGTLKPGDTIIEPTSGNTGIGLALAAAVRGYRCIIVMPEKMSSEKVDVLRALGAEIVRTPTNARFDSPESHVGVAWRLKNEIPNSHILDQYRNASNPLAHYDTTADEILQQCDGKLDMLVASVGTGGTITGIARKLKEKCPGCRIIGVDPEGSILAEPEELNQTEQTTYEVEGIGYDFIPTVLDRTVVDKWFKSNDEEAFTFARMLIAQEGLLCGGSAGSTVAVAVKAAQELQEGQRCVVILPDSVRNYMTKFLSDRWMLQKGFLKEEDLTEKKPWWWHLRVQELGLSAPLTVLPTITCGHTIEILREKGFDQAPVVDEAGVILGMVTLGNMLSSLLAGKVQPSDQVGKVIYKQFKQIRLTDTLGRLSHILEMDHFALVVHEQIQYHSTGKSSQRQMVFGVVTAIDLLNFVAAQERDQK
B7: TPP1_HUMAN (protein, UniProt O14773 196-563, looked up)
Tripeptidyl-peptidase 1: LHLGVTPSVIRKRYNLTSQDVGSGTSNNSQACAQFLEQYFHDSDLAQFMRLFGGNFAHQASVARVVGQQGRGRAGIEASLDVQYLMSAGANISTWVYSSPGRHEGQEPFLQWLMLLSNESALPHVHTVSYGDDEDSLSSAYIQRVNTELMKAAARGLTLLFASGDSGAGCWSVSGRHQFRPTFPASSPYVTTVGGTSFQEPFLITNEIVDYISGGGFSNVFPRPSYQEEAVTKFLSSSPHLPPSSYFNASGRAYPDVAALSDGYWVVSNRVPIPWVSGTSASTPVFGGILSLINEHRILSGRPPLGFLNPRLYQQHGAGLFDVTRGCHESCLDEEVEGQGFCSGPGWDPVTGWGTPNFPALLKTLLNP
B8: PUR8_HUMAN (protein, UniProt P30566 2-484, looked up)
Adenylosuccinate lyase: AAGGDHGSPDSYRSPLASRYASPEMCFVFSDRYKFRTWRQLWLWLAEAEQTLGLPITDEQIQEMKSNLENIDFKMAAEEEKRLRHDVMAHVHTFGHCCPKAAGIIHLGATSCYVGDNTDLIILRNALDLLLPKLARVISRLADFAKERASLPTLGFTHFQPAQLTTVGKRCCLWIQDLCMDLQNLKRVRDDLRFRGVKGTTGTQASFLQLFEGDDHKVEQLDKMVTEKAGFKRAFIITGQTYTRKVDIEVLSVLASLGASVHKICTDIRLLANLKEMEEPFEKQQIGSSAMPYKRNPMRSERCCSLARHLMTLVMDPLQTASVQWFERTLDDSANRRICLAEAFLTADTILNTLQNISEGLVVYPKVIERRIRQELPFMATENIIMAMVKAGGSRQDCHEKIRVLSQQAASVVKQEGGDNDLIERIQVDAYFSPIHSQLDHLLDPSSFTGRASQQVQRFLEEEVYPLLKPYESVMKVKAELCL

These molecules were tested on KDM4A-I71AzF (assay: CASI: photo-crosslinking with HEK293T cell extracts, StrepTactin enrichment and LC-MS/MS proteomics). Conditions: sheet "Final results but with 0.01".
Assay type: binding, human
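Also: lysates from HEK293T cells pretreated with a KDM4 inhibitor to raise proteome methylation, affinity-purified after ±UV, gel-resolved, trypsin-digested, with exclusive unique peptides per protein averaged per condition.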

Molecule | Fold change (+UV/-UV)
B1 | 1.043
B2 | 2
B3 | 0.4
B4 | 0.9333
B5 | 0.3333
B6 | 1.4
B7 | 0
B8 | 0.3333
